Laboratory results published in patent US20240263161A1 (UNIVERSITY OF COPENHAGEN, published 2024).

Experiments:
[1] = molecular target: secreted purified MUC1 TR reporter, WT glycoform (core2 sialylated O-glycans, HEK293 WT) (human) (UniProt P15941); assay: cell-based or functional assay
[2] = molecular target: membrane bound MUC1 TR reporter on HEK293 WT cells (core2 O-glycans) (human) (UniProt P15941); assay: cell-based or functional assay
[3] = molecular target: secreted purified MUC1 TR reporter, WT glycoform (core2 sialylated O-glycans, HEK293 WT) (human, UniProt P15941 121-260); assay: microscale thermophoresis (MST), […]
Sequence of secreted purified MUC1 TR reporter, WT glycoform (core2 sialylated O-glycans, HEK293 WT) (P15941 121-260): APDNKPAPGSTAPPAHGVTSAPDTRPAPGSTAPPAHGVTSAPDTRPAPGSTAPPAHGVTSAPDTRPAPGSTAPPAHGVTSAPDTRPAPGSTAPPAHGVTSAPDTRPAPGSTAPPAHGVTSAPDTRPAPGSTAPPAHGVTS

[4] = molecular target: T1, secreted purified MUC5AC TR reporter, WT glycoform (core2 sialylated O-glycans, HEK293 WT) (human, UniProt P98088 2708-2850); assay: microscale thermophoresis (MST), […]
T1 sequence: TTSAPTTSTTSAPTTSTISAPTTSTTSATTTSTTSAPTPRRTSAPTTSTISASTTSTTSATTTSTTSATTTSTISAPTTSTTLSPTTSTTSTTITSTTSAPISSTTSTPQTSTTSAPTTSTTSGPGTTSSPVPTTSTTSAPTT

[5] = molecular target: T2, secreted purified MUC5AC TR reporter, Tn glycoform (human, UniProt P98088 2708-2850); assay: microscale thermophoresis (MST), […]
T2 sequence: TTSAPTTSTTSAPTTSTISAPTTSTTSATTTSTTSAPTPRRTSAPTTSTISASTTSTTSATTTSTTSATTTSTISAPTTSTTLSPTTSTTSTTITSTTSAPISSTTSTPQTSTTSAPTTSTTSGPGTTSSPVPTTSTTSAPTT

[6] = molecular target: secreted purified MUC21 TR reporter, Tn glycoform (human, UniProt Q5SSG8 130-278); assay: ELISA with purified secreted reporters
Sequence of secreted purified MUC21 TR reporter, Tn glycoform (Q5SSG8 130-278): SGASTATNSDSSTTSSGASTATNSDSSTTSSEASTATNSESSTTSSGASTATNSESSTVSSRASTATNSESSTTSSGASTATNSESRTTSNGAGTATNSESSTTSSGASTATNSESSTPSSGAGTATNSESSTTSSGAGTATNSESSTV

Sequence of membrane bound MUC1 TR reporter on HEK293 WT cells (core2 O-glycans) (human) (P15941 121-260 limits assumed): as the sequence (P15941 121-260) above
Sequence of secreted purified MUC1 TR reporter, WT glycoform (core2 sialylated O-glycans, HEK293 WT) (human) (P15941 121-260): as above

StcE (Secreted protease of C1 esterase inhibitor) wildtype, recombinant (from UniProt O82882 36-898) (enzyme)
cleavage, dose titration with the isolated reporter (SDS-PAGE) [1]: > 10 µg/mL | cleavage, dose titration on cells (flow cytometry) [2]: > 10 µg/mL

B1: AlexaFluoro647 labelled MBP-X409 (other)
chain: EGCIVSVNSGKRYCLPVGQRSGYSLPDWIVGQEVYVDSGAKAKVLLSDWDNLSYNRIGEFVGNVNPADMKKVKAWNGQYLDFSKPRSMRVVYK
Kd [3]: 2600 nM | fold lower binding affinity (against MUC5Ac) [3]: > 1000 fold | Kd [4]: 14 nM | Kd [5]: 37 nM

B2: X409 module of Escherichia coli O157:H7 StcE (tags of the construct not stated) (other)
chain: EGCIVSVNSGKRYCLPVGQRSGYSLPDWIVGQEVYVDSGAKAKVLLSDWDNLSYNRIGEFVGNVNPADMKKVKAWNGQYLDFSKPRSMRVVYK
binding result [6]: binds
